IntAct's records for PubMed 29039417

B1: Isoform 2 of Bardet-Biedl syndrome 7 protein (Homo sapiens), Q8IWZ6-2 (parent)
chain: MDLILNRMDYLQVGVTSQKTMKLIPASRHRATQKVVIGDHDGVVMCFGMKKGEAAAVFKTLPGPKIARLELGGVINTPQEKIFIAAASEIRGFTKRGKQFLSFETNLTESIKAMHISGSDLFLSASYIYNHYCDCKDQHYYLSGDKINDVICLPVERLSRITPVLACQDRVLRVLQGSDVMYAVEVPGPPTVLALHNGNGGDSGEDLLFGTSDGKLALIQITTSKPVRKWEIQNEKKRGGILCIDSFDIVGDGVKDLLVGRDDGMVEVYSFDNANEPVLRFDQMLSESVTSIQGGCVGKDSYDEIVVSTYSGWVTGLTTEPIHKESGPGEELKINQEMQNKISSLRNELEHLQYKVLQERENYQQSSQSSKAKSAVPSFGINDKFTLNKDDASYSLILEVQTAIDNVLIQSDVPIDLLDVDKNSAVVSFSSCDSESNDNFLLATYRCQADTTRLELKIRSIEGQYGTLQAYVTPRIQPKTCQVRQYHIKPLSLHQRTHFIDHDRPMNTLTLTGQFSFAEVHSWVVFCLPEVPEKPPAGECVTFYFQNTFLDTQLESTYRKGEGVFKSDNISTISILKDVLSKEATKRKINLNISYEINEVSVKHTLKLIHPKLEYQLLLAKKVQLIDALKELQIHEGNTNFLIPEYHCILEEADHLQEEYKKQPAHLERLYG
partner: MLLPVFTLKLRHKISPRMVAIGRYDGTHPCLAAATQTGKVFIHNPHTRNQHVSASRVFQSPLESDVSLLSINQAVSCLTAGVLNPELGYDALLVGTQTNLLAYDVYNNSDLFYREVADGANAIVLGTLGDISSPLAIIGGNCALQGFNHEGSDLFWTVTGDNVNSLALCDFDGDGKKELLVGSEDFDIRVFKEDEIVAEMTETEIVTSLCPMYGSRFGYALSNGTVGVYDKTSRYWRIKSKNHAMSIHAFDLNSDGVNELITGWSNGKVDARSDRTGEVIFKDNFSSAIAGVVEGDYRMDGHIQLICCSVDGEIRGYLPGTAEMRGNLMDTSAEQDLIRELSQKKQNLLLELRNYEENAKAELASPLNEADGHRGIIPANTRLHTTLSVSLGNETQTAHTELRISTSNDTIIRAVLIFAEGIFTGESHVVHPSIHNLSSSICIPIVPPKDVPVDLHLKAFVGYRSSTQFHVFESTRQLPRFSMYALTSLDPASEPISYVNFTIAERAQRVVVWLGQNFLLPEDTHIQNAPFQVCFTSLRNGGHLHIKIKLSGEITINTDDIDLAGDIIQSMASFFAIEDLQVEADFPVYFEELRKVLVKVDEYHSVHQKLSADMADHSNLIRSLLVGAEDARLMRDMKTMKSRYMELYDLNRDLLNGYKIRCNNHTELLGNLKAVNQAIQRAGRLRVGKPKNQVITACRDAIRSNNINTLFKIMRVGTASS

Variants of: B1
Conditions: with bbs2_human BBS2, Q9BXC9

Variant	effect of a mutation on the interaction
N362K	with no effect
Y363A	with no effect
Y363E	with no effect
Y363K	with no effect
Q364A	with no effect
Q364E	with no effect
Q364K	with no effect
Q365A	with no effect
Q365E	with no effect
Q365K	with no effect
S366A	with no effect
S366E	with no effect
S366K	with no effect
S367A	with no effect
S367E	with no effect
S367K	with no effect
Q368A	with no effect
Q368E	with no effect
Q368K	with no effect
S369A	with no effect
S369E	with no effect
S369K	with no effect
S370A	with no effect
S370E	with no effect

Variant	effect of a mutation on the interaction
S370K	with no effect
K371A	with no effect
K371E	with no effect
A372E	with no effect
A372K	with no effect
K373A	with no effect
K373E	with no effect
S374A	with no effect
S374E	with no effect
S374K	with no effect
A375E	with no effect
A375K	with no effect
V376A	with no effect
V376E	with no effect
V376I	disrupting interaction strength
V376K	with no effect
P377A	with no effect
P377E	with no effect
P377K	with no effect
S378A	with no effect
S378E	with no effect
S378K	with no effect
F379A	with no effect
F379E	with no effect

Variant	effect of a mutation on the interaction
F379K	with no effect
G380A	with no effect
G380E	with no effect
G380K	with no effect
I381A	with no effect
I381E	with no effect
I381K	with no effect
N382A	with no effect
N382E	with no effect
N382K	with no effect
D383A	with no effect
D383E	with no effect
D383K	with no effect
K384A	with no effect
K384E	with no effect
F385A	with no effect
F385E	with no effect
F385K	with no effect
T386A	with no effect
T386E	with no effect
T386K	with no effect
L387A	with no effect
L387E	with no effect
L387K	with no effect

Variant	effect of a mutation on the interaction
N388A	with no effect
N388E	with no effect
N388K	with no effect
K389A	with no effect
K389E	with no effect
D390A	with no effect
D390E	with no effect
D390K	with no effect
D391A	with no effect
D391E	with no effect
D391K	with no effect
A392E	with no effect
A392K	with no effect
S393A	with no effect
S393E	with no effect
S393K	with no effect
Y394A	with no effect
Y394E	with no effect
Y394K	with no effect
S395A	with no effect
S395E	with no effect
S395K	with no effect
L396A	with no effect
L396E	with no effect

Variant	effect of a mutation on the interaction
L396K	with no effect
L396P	disrupting interaction strength
I397A	with no effect
I397E	with no effect
I397K	with no effect
L398A	with no effect
L398E	with no effect
L398K	with no effect
E399A	with no effect
E399K	with no effect
E399V	disrupting interaction strength
V400A	with no effect
V400E	with no effect
V400K	with no effect
Q401A	with no effect
Q401E	with no effect
Q401K	with no effect
T402A	with no effect
T402E	with no effect
T402K	with no effect
A403E	with no effect
A403K	with no effect
I404A	with no effect
I404E	with no effect

More lines, now with the values ahead:

effect of a mutation on the interaction	Variant
with no effect	I404K
with no effect	D405A
with no effect	D405E
with no effect	D405K
with no effect	N406A
with no effect	N406E
with no effect	N406K
with no effect	V407A
with no effect	V407E
with no effect	V407K
with no effect	L408A
with no effect	L408E
with no effect	L408K
with no effect	I409A
with no effect	I409E
with no effect	I409K
with no effect	Q410A
with no effect	Q410E
with no effect	Q410K
with no effect	S411A
with no effect	S411E
with no effect	S411K

effect of a mutation on the interaction	Variant
with no effect	D412A
with no effect	D412E
with no effect	D412K
with no effect	V413A
with no effect	V413E
with no effect	V413K
with no effect	P414A
with no effect	P414E
with no effect	P414K
with no effect	I415A
with no effect	I415E
with no effect	I415K
with no effect	D416A
with no effect	D416E
with no effect	D416K
with no effect	L417A
with no effect	L417E
with no effect	L417K
with no effect	L418A
with no effect	L418E
with no effect	L418K
with no effect	D419A

effect of a mutation on the interaction	Variant
with no effect	D419E
with no effect	D419K
with no effect	V420A
with no effect	V420E
with no effect	V420K
with no effect	D421A
with no effect	D421E
with no effect	D421K
with no effect	K422A
with no effect	K422E
with no effect	N423A
with no effect	N423E
with no effect	N423K
with no effect	S424A
with no effect	S424E
with no effect	S424K
with no effect	A425E
with no effect	A425K
with no effect	V426A
with no effect	V426E
with no effect	V426K
with no effect	V427A
